The source of these data is the supplement of paper PMC5998384.

Series [1] concerns HeLa Kyoto. As to the kind of experiment: solubility in G1/S (NP-40 vs SDS abundance) (log2 ratio); higher = more soluble. The note with it: cell cycle stage: G1/S.
In series [2] the test system is HeLa Kyoto. As to the kind of experiment: melting temperature (median over replicates), in situ; higher = more thermally stable.
In series [3] the test system is HeLa Kyoto. As to the kind of experiment: solubility change mitosis vs G1/S (difference of NP-40 vs SDS log2 ratios) (log2 ratio difference); higher = more soluble in mitosis.
The test system of series [4] is HeLa Kyoto. As to the kind of experiment: thermal stability score vs G1/S (z-score of summed log2 fold changes over temperatures); higher = more thermally stable than in G1/S.
The mark [5] stands for this setting: cell cycle stage: early G1 (4.5 h after nocodazole release).
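Wherever melting temperature (median over replicates), in situ is given: HeLa Kyoto cells synchronized by double thymidine or nocodazole block, proteins quantified by TMT10plex mass spectrometry, three independent biological replicates.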
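Wherever solubility change mitosis vs G1/S (difference of NP-40 vs SDS log2 ratios) is given: synchronized HeLa Kyoto cells (double thymidine block for G1/S, nocodazole release for mitosis), protein amounts in NP-40 versus SDS lysates quantified by mass spectrometry, three biological replicates.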
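Wherever solubility in G1/S (NP-40 vs SDS abundance) is given: HeLa Kyoto cells arrested at G1/S by double thymidine block, proteins quantified by TMT10plex mass spectrometry in mild NP-40 versus SDS extracts, three biological replicates.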
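Wherever thermal stability score vs G1/S (z-score of summed log2 fold changes over temperatures) is given: synchronized HeLa Kyoto cells, proteins quantified by TMT10plex mass spectrometry, three biological replicates, mitosis taken 0.5 h after nocodazole release, G1/S directly after double thymidine block.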

In the case of “MAGGGGDLSTRRLNECISPVANEMNHLPAHSHDLQRMFTEDQGVDDRLLYDIVFKHFKRNKVEISNAIKKTFPFLEGLRDRDLITNKMFEDSQDSCRNLVPVQRVVYNVLSELEKTFNLPVLEALFSDVNMQEYPDLIHIYKGFENVIHDKLPLQESEEEEREERSGLQLSLEQGTGENSFRSLTWPPSGSPSHAGTTPPENGLSEHPCETEQINAKRKDTTSDKDDSLGSQQTNEQCAQKAEPTESCEQIAVQVNNGDAGREMPCPLPCDEESPEAELHNHGIQINSCSVRLVDIKKEKPFSNSKVECQAQARTHHNQASDIIVISSEDSEGSTDVDEPLEVFISAPRSEPVINNDNPLESNDEKEGQEATCSRPQIVPEPMDFRKLSTFRESFKKRVIGQDHDFSESSEEEAPAEASSGALRSKHGEKAPMTSRSTSTWRIPSRKRRFSSSDFSDLSNGEELQETCSSSLRRGSGSQPQEPENKKCSCVMCFPKGVPRSQEARTESSQASDMMDTMDVENNSTLEKHSGKRRKKRRHRSKVNGLQRGRKKDRPRKHLTLNNKVQKKRWQQRGRKANTRPLKRRRKRGPRIPKDENINFKQSELPVTCGEVKGTLYKERFKQGTSKKCIQSEDKKWFTPREFEIEGDRGASKNWKLSIRCGGYTLKVLMENKFLPEPPSTRKKRILESHNNTLVDPCEEHKKKNPDASVKFSEFLKKCSETWKTIFAKEKGKFEDMAKADKAHYEREMKTYIPPKGEKKKKFKDPNAPKRPPLAFFLFCSEYRPKIKGEHPGLSIDDVVKKLAGMWNNTAAADKQFYEKKAAKLKEKYKKDIAAYRAKGKPNSAKKRVVKAEKSKKKKEEEEDEEDEQEEENEEDDDK [SP100]”, the “solubility in G1/S (log2)” value in series [1] stood at 0.0834. In addition, the melting temperature in series [2] (cell cycle stage: G1/S) and in series [2] (cell cycle stage: mitosis) was 51.9 °C throughout. Also, the “solubility change mitosis (log2)” value in series [3] turned out to be 0.113. The values for the thermal stability score in series [4] (setting [5]) and in series [4] (cell cycle stage: mitosis) were -2.83 and -2.43, respectively.

As to “MAGLSDLELRRELQALGFQPGPITDTTRDVYRNKLRRLRGEARLRDEERLREEARPRGEERLREEARLREDAPLRARPAAASPRAEPWLSQPASGSAYATPGAYGDIRPSAASWVGSRGLAYPARPAQLRRRASVRGSSEEDEDARTPDRATQGPGLAARRWWAASPAPARLPSSLLGPDPRPGLRATRAGPAGAARARPEVGRRLERWLSRLLLWASLGLLLVFLGILWVKMGKPSAPQEAEDNMKLLPVDCERKTDEFCQAKQKAALLELLHELYNFLAIQAGNFECGNPENLKSKCIPVMEAQEYIANVTSSSSAKFEAALTWILSSNKDVGIWLKGEDQSELVTTVDKVVCLESAHPRMGVGCRLSRALLTAVTNVLIFFWCLAFLWGLLILLKYRWRKLEEEEQAMYEMVKKIIDVVQDHYVDWEQDMERYPYVGILHVRDSLIPPQSRRRMKRVWDRAVEFLASNESRIQTESHRVAGEDMLVWRWTKPSSFSDSER [LEMD2]”, the “solubility in G1/S (log2)” value in series [1] is -0.759. Besides, the melting temperature worked out at 52.5 °C in series [2] (cell cycle stage: G1/S) and 51.1 °C in series [2] (cell cycle stage: mitosis). Further, the “solubility change mitosis (log2)” value in series [3] is 0.776. The thermal stability score in series [4] (setting [5]) is -1.63; in series [4] (cell cycle stage: mitosis) it was -1.98.

With “MAGMVDFQDEEQVKSFLENMEVECNYHCYHEKDPDGCYRLVDYLEGIRKNFDEAAKVLKFNCEENQHSDSCYKLGAYYVTGKGGLTQDLKAAARCFLMACEKPGKKSIAACHNVGLLAHDGQVNEDGQPDLGKARDYYTRACDGGYTSSCFNLSAMFLQGAPGFPKDMDLACKYSMKACDLGHIWACANASRMYKLGDGVDKDEAKAEVLKNRAQQLHKEQQKGVQPLTFG [COA7]”, the “solubility in G1/S (log2)” value in series [1] stood at 0.586. In addition, the results for the melting temperature in series [2] (cell cycle stage: G1/S) and in series [2] (cell cycle stage: mitosis) were 52.9 °C and 52.7 °C, respectively. Besides, the “solubility change mitosis (log2)” value in series [3] was found to be 0.0461. Moreover, the thermal stability score in series [4] (setting [5]) is -1.59; in series [4] (cell cycle stage: mitosis), -1.97.

In the case of “MAGRRVNVNVGVLGHIDSGKTALARALSTTASTAAFDKQPQSRERGITLDLGFSCFSVPLPARLRSSLPEFQAAPEAEPEPGEPLLQVTLVDCPGHASLIRTIIGGAQIIDLMMLVIDVTKGMQTQSAECLVIGQIACQKLVVVLNKIDLLPEGKRQAAIDKMTKKMQKTLENTKFRGAPIIPVAAKPGGPEAPETEAPQGIPELIELLTSQISIPTRDPSGPFLMSVDHCFSIKGQGTVMTGTILSGSISLGDSVEIPALKVVKKVKSMQMFHMPITSAMQGDRLGICVTQFDPKLLERGLVCAPESLHTVHAALISVEKIPYFRGPLQTKAKFHITVGHETVMGRLMFFSPAPDNFDQEPILDSFNFSQEYLFQEQYLSKDLTPAVTDNDEADKKAGQATEGHCPRQQWALVEFEKPVTCPRLCLVIGSRLDADIHTNTCRLAFHGILLHGLEDRNYADSFLPRLKVYKLKHKHGLVERAMDDYSVIGRSLFKKETNIQLFVGLKVHLSTGELGIIDSAFGQSGKFKIHIPGGLSPESKKILTPALKKRARAGRGEATRQEESAERSEPSQHVVLSLTFKRYVFDTHKRMVQSP [EEFSEC]”, the “solubility in G1/S (log2)” value in series [1] was -0.248. In addition, the melting temperature in series [2] (cell cycle stage: G1/S) amounted to 49.3 °C; in series [2] (cell cycle stage: mitosis), 51.2 °C. For the same sequence, the “solubility change mitosis (log2)” value in series [3] is 0.119. Further, the results for the thermal stability score in series [4] (setting [5]) and in series [4] (cell cycle stage: mitosis) were 2.19 and 3.12, respectively.

Consider “MAGRSMQAARCPTDELSLTNCAVVNEKDFQSGQHVIVRTSPNHRYTFTLKTHPSVVPGSIAFSLPQRKWAGLSIGQEIEVSLYTFDKAKQCIGTMTIEIDFLQKKSIDSNPYDTDKMAAEFIQQFNNQAFSVGQQLVFSFNEKLFGLLVKDIEAMDPSILKGEPATGKRQKIEVGLVVGNSQVAFEKAENSSLNLIGKAKTKENRQSIINPDWNFEKMGIGGLDKEFSDIFRRAFASRVFPPEIVEQMGCKHVKGILLYGPPGCGKTLLARQIGKMLNAREPKVVNGPEILNKYVGESEANIRKLFADAEEEQRRLGANSGLHIIIFDEIDAICKQRGSMAGSTGVHDTVVNQLLSKIDGVEQLNNILVIGMTNRPDLIDEALLRPGRLEVKMEIGLPDEKGRLQILHIHTARMRGHQLLSADVDIKELAVETKNFSGAELEGLVRAAQSTAMNRHIKASTKVEVDMEKAESLQVTRGDFLASLENDIKPAFGTNQEDYASYIMNGIIKWGDPVTRVLDDGELLVQQTKNSDRTPLVSVLLEGPPHSGKTALAAKIAEESNFPFIKICSPDKMIGFSETAKCQAMKKIFDDAYKSQLSCVVVDDIERLLDYVPIGPRFSNLVLQALLVLLKKAPPQGRKLLIIGTTSRKDVLQEMEMLNAFSTTIHVPNIATGEQLLEALELLGNFKDKERTTIAQQVKGKKVWIGIKKLLMLIEMSLQMDPEYRVRKFLALLREEGASPLDFD [NSF]”, for which the “solubility in G1/S (log2)” value in series [1] came out at 0.236. The melting temperature in series [2] (cell cycle stage: G1/S) turned out to be 49.8 °C; in series [2] (cell cycle stage: mitosis) it was 49.6 °C. For the same sequence, in series [3], the “solubility change mitosis (log2)” value is -0.153. Also, the thermal stability score in series [4] (setting [5]) worked out at 0.564; in series [4] (cell cycle stage: mitosis), 0.772.
